From patent publication US20050042624A1, “Tumor antigen” (Kyogo ITOH, priority 2001, published 2005)

What was measured:
[1] = test system: OK-CTLd; assay: IFN-γ production from OK-CTLd against COS-7 cells co-transfected with cDNA clone and HLA-A0207 (ELISA); format: cell-based, human
Description: Cryopreserved OK-CTLd was cultured in the presence of 100 U/ml of IL-2 for 2 weeks or more to use in the experiments.
A cDNA library of SW620 cells was pooled so that each pool contained 100 clones, and 200 ng of the cDNA pooled in each well and 200 ng of the HLA-A0207 cDNA were mixed in 100 ul of lipofectoamine (Invitrogen Corp.)/Opti-MEM (Invitrogen Corp.) 1:200 mixture for 30 min. 50 μl of the obtained mixture was added to a simian kidney cell line COS-7 (1×10^4), and incubated for 6 h for co-transduction. Then, RPMI-1640 culture medium containing 10% FCS was added to and culturing was carried out for 2 days, followed by addition of OK-CTLd (2×10^5) to each well. After a further 18 h incubation, 100 μl of the supernatant was collected, and IFN-γ production was measured by ELISA. In this case, as a negative control, using COS-7 cells into which the gene had not been transfected as a target, IFN-γ production from OK-CTLd was examined and the value of IFN-γ produced was subtracted as a background from that of each measurement.
A pool of cDNA library was screened with the criteria in which cDNA capable of enhancing IFN-γ production from OK-CTLd was judged as a positive one having CTL-activating ability. […]

[2] = test system: KE4-CTL; assay: IFN-γ production from KE4-CTL against VA13 cells co-transfected with cDNA clone and HLA-A2601; format: cell-based, human
From the text: A gene encoding a tumor antigen recognized by KE4-CTL was isolated/identified from a human esophageal cancer cell line KE4 according to a known method [J. Exp. Med., 187: 277-288, 1998.] First of all, poly (A) ^+RNA of KE4 cells was converted to cDNA, ligated with a SalI adaptor so as to insert into the expression vector pSV-SPORT-1 (Invitrogen Corp.). Moreover, cDNA of HLA-A2601 was obtained by the reverse transcription-polymerase chain reaction (RT-PCR) and cloned into the eukaryotic cell expression vector pCR3 (Invitrogen Corp.).
A cDNA library of KE4 cells was pooled so that each pool contained 100 clones, and 200 ng of the cDNA pooled in each well and 200 ng of the HLA-A2601cDNA were mixed in 100 μl of lipofectoamine (Invitrogen Corp.)/Opti-MEM (Invitrogen Corp.) 1:200 mixture for 30 min. 50 μl of the obtained mixture was added to VA13 cells (1×10^4), and incubated for 6 h for co-transduction. Then, RPMI-1640 culture medium containing 10% FCS was added thereto and culturing was carried out for 2 days, followed by addition of KE4-CTL (2×10^5) to each well. After a further 18 h incubation, 100 μl of the supernatant was collected, and IFN-γ production was measured by ELISA.
A pool of cDNA library was screened with the criteria in which cDNA capable of enhancing IFN-γ production from KE4-CTL was judged as a positive one having CTL-activating ability. […]

B1: SW620-cl.48: cDNA clone from SW620 encoding SW620-48-PP (nucleic acid, listed as Homo sapiens)
DNA: CCTTTCCAAGGGAGTGGTTGTGTGATCGCCATCTTAGGGAAAAGATGTTCTCGTCCGTGGCGCACCTGGCGCGGGCGAACCCCTTCAACACGCCACATCTGCAGCTGGTGCACGATGGTCTCGGGGACCTCCGCAGCAGCTCCCCAGGGCCCACGGGCCAGCCCCGCCGCCCTCGCAACCTGGCAGCCGCCGCCGTGGAAGAGTACAGTTGTGAATTTGGCTCCGCGAAGTATTATGCACTGTGTGGCTTTGGTGGGGTCTTAAGTTGTGGTCTGACACACACTGCTGTGGTTCCCCTGGATTTAGTGAAATGCCGTATGCAGGTGGACCCCCAAAAGTACAAGGGCATATTTAACGGATTCTCAGTTACACTTAAAGAGGATGGTGTTCGTGGTTTGGCTAAAGGATGGGCTCCGACTTTCCTTGGCTACTCCATGCAGGGACTCTGCAAGTTTGGCTTTTATGAAGTCTTTAAAGTCTTGTATAGCAATATGCTTGGAGAGGAGAATACTTATCTCTGGCGCACATCACTATATTTGGCTGCCTCTGCCAGTGCTGAATTCTTTGCTGACATTGCCCTGGCTCCTATGGAAGCTGCTAAGGTTCGAATTCAAACCCAGCCAGGTTATGCCAACACTTTGAGGGATGCAGCTCCCAAAATGTATAAGGAAGAAGGCCTAAAAGCATTCTACAAGGGGGTTGCTCCTCTCTGGATGAGACAGATACCATACACCATGATGAAGTTCGCCTGCTTTGAACGTACTGTTGAAGCACTGTACAAGTTTGTGGTTCCTAAGCCCCGCAGTGAATGTTCAAAGCCAGAGCAGCTGGTTGTAACATTTGTAGCAGGTTACATAGCTGGAGTCTTTTGTGCAATTGTTTCTCACCCTGCTGATTCTGTGGTATCTGTGTTGAATAAAGAAAAAGGTAGCAGTGCTTCTCTGGTCCTCAAGAGACTTGGATTTAAAGGTGTATGGAAGGGACTGTTTGCCCGTATCATCATGATTGGTACCCTGACTGCACTACAGTGGTTTATCTATGACTCCGTGAAGGTCTACTTCAGACTTCCTCGCCCTCCTCCACCCGAGATGCCAGAGTCTCTGAAGAAGAAGCTTGGGTTAACTCAGTAGTTAGATCAAAGCAAATGTGGACTGAATCTGCTTGTTGATCAGTGTTGAAGAAAGTGCAAAAGGAACTTTTATATATTTGACAGTGTAGGAAATTGTCTATTCCTGATATAATTACTGTAGTACTCTTGCTTAAGGCAAGAGTTTCAGATTTACTGTTGAAATAAACCCAACTCTTCATGAAAAAAAAAAAAAAA
recognition of cDNA clone by OK-CTLd, enhancement of IFN-γ production [1]: recognized by OK-CTLd in an HLA-A2-restricted manner and in a dose dependent manner of plasmid

B2: KE4-cl.18: cDNA clone from esophageal cancer cell line KE4 encoding KE4-18-PP (nucleic acid, listed as Homo sapiens)
DNA: GGGGCCGGGGCCGAGGCCGCGGAGCTCGCGGAGGCAAGGCCGAGGATAAGGAGTGGATGCCCGTCACCAAGTTGGGCCGCTTGGTCAAGGACATGAAGATCAAGTCCCTGGAGGAGATCTATCTCTTCTCCCTGCCCATTAAGGAATCAGAGATCATTGATTTCTTCCTGGGGGCCTCTCTCAAGGATGAGGTTTTGAAGATTATGCCAGTGCAGAAGCAGACCCGTGCCGGCCAGCGCACCAGGTTCAAGGCATTTGTTGCTATCGGGGACTACAATGGCCACGTCGGTCTGGGTGTTAAGTGCTCCAAGGAGGTGGCCACCGCCATCCGTGGGGCCATCATCCTGGCCAAGCTCTCCATCGTCCCCGTGCGCAGAGGCTACTGGGGGAACAAGATCGGCAAGCCCCACACTGTCCCTTGCAAGGTGACAGGCCGCTGCGGCTCTGTGCTGGTACGCCTCATCCCTGCACCCAGGGGCACTGGCATCGTCTCCGCACCTGTGCCTAAGAAGCTGCTCATGATGGCTGGTATCGATGACTGCTACACCTCAGCCCGGGGCTGCACTGCCACCCTGGGCAACTTCGCCAAGGCCACCTTTGATGCCATTTCTAAGACCTACAGCTACCTGACCCCCGACCTCTGGAAGGAGACTGTATTCACCAAGTCTCCCTATCAGGAGTTCACTGACCACCTCGTCAAGACCCACACCAGAGTCTCCGTGCAGCGGACTCAGGCTCCAGCTGTGGCTACAACATAGGGTTTTTATACAAGAAAAATAAAGTGAATTTAGCGTGAAAAAAAAAAAAAAAAAAAAAAAAAA
recognition of cDNA clone by KE4-CTL, enhancement of IFN-γ production [2]: recognized by KE4-CTL in an HLA-A26-restricted manner and in a dose dependent manner of plasmid
